Measurements as given in PMC4606454.

What was measured:
[1] = target: His-MBP-KYP (Arabidopsis) (UniProt Q8GZB6)
YFP-KYP (Arabidopsis) = YFP-KYP (Arabidopsis) (UniProt Q8GZB6); assay: FRET or BRET; FRET acceptor photobleaching (FRET-AB) in nuclei of N. benthamiana epidermal cells; TrAP-CFP donor, YFP-KYP acceptor; 27-30 cells per experiment

Substance | initial velocity of KYP transmethylation of histone 3 (in vitro HMTase reconstitution with 14C-SAM; His-MBP-TrAP pre-incubated with His-GST-KYP at molar ratios 0-10); IC50 as TrAP:KYP molar ratio (TrAP:KYP molar ratio) [1] | FRET-AB (YFP-KYP (Arabidopsis))
His-GST-CaLCuV-TrAP (natural protein) | 2 | –
TGMV TrAP-CFP (natural protein) | – | 3.82
His-GST-TGMV-TrAP (natural protein) | 2 | –
CaLCuV TrAP-CFP (natural protein) | – | 2.7
